In patent US9127040B2, “Regulation of sodium channels by PLUNC proteins” (The University of North Carolina at Chapel Hill, priority 2011, dated 2015):

Target: T1, αENaC (Rattus norvegicus, UniProt P37089+P37090)
T1 construct: expressed in transfected cells; host or cells: Xenopus oocytes
T1 sequence (P37089 1-698): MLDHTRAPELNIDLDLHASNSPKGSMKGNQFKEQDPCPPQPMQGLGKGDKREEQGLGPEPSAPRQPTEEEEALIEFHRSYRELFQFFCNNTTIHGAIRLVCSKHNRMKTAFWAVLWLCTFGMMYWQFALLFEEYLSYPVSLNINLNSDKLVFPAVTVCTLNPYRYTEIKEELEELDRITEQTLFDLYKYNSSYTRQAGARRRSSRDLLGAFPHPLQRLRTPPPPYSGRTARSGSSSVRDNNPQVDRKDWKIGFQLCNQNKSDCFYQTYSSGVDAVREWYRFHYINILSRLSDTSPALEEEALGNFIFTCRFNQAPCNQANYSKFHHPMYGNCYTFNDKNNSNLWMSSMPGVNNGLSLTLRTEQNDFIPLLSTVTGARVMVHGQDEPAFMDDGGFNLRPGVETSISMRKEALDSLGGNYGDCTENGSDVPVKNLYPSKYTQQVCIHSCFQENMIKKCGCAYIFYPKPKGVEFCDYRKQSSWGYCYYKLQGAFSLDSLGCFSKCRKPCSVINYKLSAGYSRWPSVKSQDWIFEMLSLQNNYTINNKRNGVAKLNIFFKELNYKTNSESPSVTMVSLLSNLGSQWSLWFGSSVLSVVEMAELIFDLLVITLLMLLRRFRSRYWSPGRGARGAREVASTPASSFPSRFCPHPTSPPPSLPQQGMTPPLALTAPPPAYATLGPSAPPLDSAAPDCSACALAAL
T1 sequence (P37090 1-638): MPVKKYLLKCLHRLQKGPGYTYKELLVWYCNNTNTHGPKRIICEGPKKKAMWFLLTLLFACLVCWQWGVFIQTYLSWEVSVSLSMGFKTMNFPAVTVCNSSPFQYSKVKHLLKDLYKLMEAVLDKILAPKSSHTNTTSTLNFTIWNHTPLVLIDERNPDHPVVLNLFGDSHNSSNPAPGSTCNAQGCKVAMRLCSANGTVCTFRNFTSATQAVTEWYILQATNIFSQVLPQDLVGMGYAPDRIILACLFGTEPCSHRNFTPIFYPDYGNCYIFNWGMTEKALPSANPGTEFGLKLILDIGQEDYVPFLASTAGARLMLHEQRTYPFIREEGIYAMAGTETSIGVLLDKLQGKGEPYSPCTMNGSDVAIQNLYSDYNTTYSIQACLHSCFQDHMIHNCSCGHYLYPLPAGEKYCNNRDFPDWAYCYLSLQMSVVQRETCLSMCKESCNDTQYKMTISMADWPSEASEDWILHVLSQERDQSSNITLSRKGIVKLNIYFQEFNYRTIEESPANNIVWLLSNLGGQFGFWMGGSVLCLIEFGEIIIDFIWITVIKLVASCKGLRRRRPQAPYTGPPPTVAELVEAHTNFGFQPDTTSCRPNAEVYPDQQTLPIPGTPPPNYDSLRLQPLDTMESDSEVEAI
T1 sequence (P37091 1-650 partner): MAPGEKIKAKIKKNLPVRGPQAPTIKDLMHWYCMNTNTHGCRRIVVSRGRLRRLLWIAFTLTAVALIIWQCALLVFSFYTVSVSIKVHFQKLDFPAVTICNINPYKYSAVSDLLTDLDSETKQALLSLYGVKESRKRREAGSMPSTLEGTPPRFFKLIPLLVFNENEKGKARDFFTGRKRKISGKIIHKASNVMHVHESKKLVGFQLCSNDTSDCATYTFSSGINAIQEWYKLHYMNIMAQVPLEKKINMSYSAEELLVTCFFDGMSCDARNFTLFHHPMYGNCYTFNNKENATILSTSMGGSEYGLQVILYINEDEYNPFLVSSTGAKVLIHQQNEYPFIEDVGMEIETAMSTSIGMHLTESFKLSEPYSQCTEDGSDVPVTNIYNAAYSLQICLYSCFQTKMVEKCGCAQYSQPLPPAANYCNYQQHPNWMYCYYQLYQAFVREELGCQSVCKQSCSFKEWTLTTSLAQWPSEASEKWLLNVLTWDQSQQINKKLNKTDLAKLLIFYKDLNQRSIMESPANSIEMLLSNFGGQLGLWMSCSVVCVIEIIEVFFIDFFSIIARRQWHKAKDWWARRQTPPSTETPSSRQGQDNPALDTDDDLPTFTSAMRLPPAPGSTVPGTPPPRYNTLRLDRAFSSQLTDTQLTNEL
Assay: Surface biotinylation of αENaC in Xenopus oocytes
Format: cell-based
Conditions: coexpression with SPLUNC1
Experimental: The effect of SPLUNC1 on the number of ENaC channels in the plasma membrane was tested by expressing SPLUNC1 and αENaC in Xenopus oocytes. After surface biotinylation of αENaC, total lysate was prepared and lysate from 3-4 eggs was separated on a 10% gel.

B1: SPLUNC1: human SPLUNC1 (SEQ ID NO:1), 256 amino acid secreted PLUNC family protein; rSPLUNC1 is the purified V5/6His-tagged recombinant form (protein, listed as Homo sapiens)
chain: MFQTGGLIVFYGLLAQTMAQFGGLPVPLDQTLPLNVNPALPLSPTGLAGSLTNALSNGLLSGGLLGILENLPLLDILKPGGGTSGGLLGGLLGKVTSVIPGLNNIIDIKVTDPQLLELGLVQSPDGHRLYVTIPLGIKLQVNTPLVGASLLRLAVKLDITAEILAVRDKQERIHLVLGDCTHSPGSLQISLLDGLGPLPIQGLLDSLTGILNKVLPELVQGNVCPLVNEVLRGLDITLVHDIVNMLIHGLQFVIKV
modifications: V5/6His tag in recombinant form
notes: rSPLUNC1 is the purified V5/6His-tagged recombinant form
  plasma membrane ENaC (surface biotinylation): decreased
